In assay [1] the target is Acinetobacter baumannii 118362 Family 2A encapsulin shell protein (J517_0527) (Acinetobacter baumannii 118362). The assay is described as follows: cryo-EM structure.
Assay [2] addresses degraded free cysteine desulfurase that has lost the N-terminal CLD (Acinetobacter baumannii 118362). The assay is described as follows: SEC. Background: Size exclusion chromatography separates by hydrodynamic size, large species first.
In assay [3] the target is free Acinetobacter baumannii 118362 cysteine desulfurase (construct RB30, C-terminally His6-tagged, tag removed) (Acinetobacter baumannii 118362). The assay is described as follows: SEC.

This passage reports stoichiometry N and stoichiometry N (CD cargo proteins per encapsulin shell) results from article doi:10.1101/2023.06.21.545984.

A value given as a limit tells only on which side of the number the result lay.

With “Acinetobacter baumannii 118362 Family 2A encapsulin shell protein (J517_0527) (natural protein)”, the stoichiometry N in assay [1] came out at 60 subunits.
The substance “Acinetobacter baumannii 118362 cysteine desulfurase (J517_0528), co-expressed from the four-gene operon (enzyme)” yielded a stoichiometry N (CD cargo proteins per encapsulin shell) in assay [1] below 24.
“degraded free cysteine desulfurase that has lost the N-terminal CLD (domain or fragment)”: the stoichiometry N in assay [2] was 2.
In turn, “free Acinetobacter baumannii 118362 cysteine desulfurase (construct RB30, C-terminally His6-tagged, tag removed) (enzyme)” returned a stoichiometry N in assay [3] of 2.

In general, stoichiometry N refers to a count of units in the complex or per binding partner.
